Measured values as given in patent US20250281611A1 (BIOSCEPTRE AUST, published 2025).

Legend:
[1] = target: T1, CD135 (UniProt P36888 27-993, limits assumed); test: flow cytometry, MOLM-13 cells
T1 construct: whole, on cells; also called FLT-3

[2] = target: T2, CD79B (UniProt P40259 29-229, limits assumed); test: flow cytometry, JeKo-1 cells
T2 construct: whole, on cells
T2 sequence (looked up): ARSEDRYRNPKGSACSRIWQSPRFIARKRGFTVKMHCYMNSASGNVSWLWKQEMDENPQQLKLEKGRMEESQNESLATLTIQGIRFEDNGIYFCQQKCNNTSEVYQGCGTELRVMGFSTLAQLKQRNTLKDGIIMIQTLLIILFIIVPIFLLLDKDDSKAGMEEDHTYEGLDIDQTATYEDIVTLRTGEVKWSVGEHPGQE

[3] = target: T3, EGFR (UniProt P00533 25-1210); test: flow cytometry, MDA-MB 231 and PC-3 cells
T3 construct: whole, on cells

[4] = target: T4, ROR1 (UniProt Q01973 30-937, limits assumed); test: flow cytometry, JeKo-1 cells
T4 construct: whole, on cells

[5] = target: T5, CD22 (UniProt P20273 20-847, limits assumed); test: flow cytometry, Raji cells
T5 construct: whole, on cells

[6] = target: T6, CD37 (UniProt P11049 1-281, limits assumed); test: flow cytometry, JeKo-1 cells
T6 construct: whole, on cells
T6 sequence (looked up): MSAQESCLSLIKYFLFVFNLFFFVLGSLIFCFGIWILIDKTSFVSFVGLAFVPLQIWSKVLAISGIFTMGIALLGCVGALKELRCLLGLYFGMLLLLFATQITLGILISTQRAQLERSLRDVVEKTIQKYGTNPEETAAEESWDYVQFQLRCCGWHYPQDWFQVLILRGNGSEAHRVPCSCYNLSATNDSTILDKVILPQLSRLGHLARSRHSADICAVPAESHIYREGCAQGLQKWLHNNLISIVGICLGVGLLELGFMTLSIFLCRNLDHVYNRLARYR

[7] = target: T7, nfP2X7 CAR 1; test: flow cytometry, nfP2X7 CAR 1 T cells (EGFR+ gate), anti-His-FITC detection
T7 construct: CAR-positive cells gated by the co-expressed EGFR marker; also called nfP2X7 targeted CAR; nfP2X7 CAR on EGFR+ T cells

[8] = target: T7, nfP2X7 CAR 1; test: flow cytometry, anti-His-FITC, MFI on EGFR+ (CAR+) over EGFR- (CAR-) T cells
In short: (§1)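 CAR T cells incubated with BRiDGE variants at saturating concentrations; bound BRiDGE detected with anti-His-FITC by flow cytometry. EGFR marks CAR expression. Value is median fluorescence intensity on EGFR+ (CAR+) cells divided by that on EGFR− (CAR−) cells.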

[9] = target: T7, nfP2X7 CAR 1; test: flow cytometry, anti-His-FITC, MFI on EGFR+ (CAR+) T cells over background 0.44
In short: as §1

[10] = target: T8, CD19 (UniProt P15391 20-556, limits assumed); test: flow cytometry, JeKo-1 cells, BIL03s-AF647 detection, MFI over no-bridge control
T8 construct: whole, on cells; also called CD19 on JeKo-1
T8 sequence (looked up): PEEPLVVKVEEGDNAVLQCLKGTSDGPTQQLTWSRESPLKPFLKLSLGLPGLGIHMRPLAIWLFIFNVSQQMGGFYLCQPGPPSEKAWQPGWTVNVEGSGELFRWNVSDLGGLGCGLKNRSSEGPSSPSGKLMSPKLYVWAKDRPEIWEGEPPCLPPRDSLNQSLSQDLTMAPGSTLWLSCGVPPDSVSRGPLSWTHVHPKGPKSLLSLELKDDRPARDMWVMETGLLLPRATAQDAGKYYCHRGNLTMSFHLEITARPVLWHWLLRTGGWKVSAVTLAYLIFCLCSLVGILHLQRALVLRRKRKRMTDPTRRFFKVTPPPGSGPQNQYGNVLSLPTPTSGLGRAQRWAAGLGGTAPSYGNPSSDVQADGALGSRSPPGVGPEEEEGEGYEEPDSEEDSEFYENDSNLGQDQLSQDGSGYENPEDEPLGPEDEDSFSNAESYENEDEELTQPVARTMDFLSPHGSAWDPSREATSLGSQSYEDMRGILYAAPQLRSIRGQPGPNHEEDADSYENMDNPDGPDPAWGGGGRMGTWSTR
Protocol: (§2) JeKo-1 cells were incubated with different CD19 BRiDGE variants at saturating concentrations. […] The MFI intensity correlates with the number of secondary bound antibodies bound to the CD19 BRiDGE variants that are only detected if they are bound to the JeKo-1 cells. MFI: median fluorescence intensity. BLitz: Bio-Layer interferometry (BLI) technology using HIS-tag identification tips. […] The higher the MFIR, the stronger the binding.

[11] = target: T8, CD19; test: flow cytometry, JeKo-1 cells, bridge at saturating conc., BIL03s-AF647 detection
Protocol: as §2

[12] = target: T8, CD19; test: flow cytometry, JeKo-1 cells, anti-His-FITC detection, MFI over no-bridge control
Protocol: as §2

[13] = target: T8, CD19; test: flow cytometry, JeKo-1 cells, bridge at saturating conc., anti-His-FITC detection
Protocol: as §2

[14] = target: T9, CD123 (UniProt P26951 19-378, limits assumed); test: flow cytometry, MOLM-13 cells
T9 construct: whole, on cells; also called IL3RA

[15] = target: T10, BCMA (UniProt Q02223 1-184, limits assumed); test: flow cytometry, RPMI 8226 cells
T10 construct: whole, on cells
T10 sequence (looked up): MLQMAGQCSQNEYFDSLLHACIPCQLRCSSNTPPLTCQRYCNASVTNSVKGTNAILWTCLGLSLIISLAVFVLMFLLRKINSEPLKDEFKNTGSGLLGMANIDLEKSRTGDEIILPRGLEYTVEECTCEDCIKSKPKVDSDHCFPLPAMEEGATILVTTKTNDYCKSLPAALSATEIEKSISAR

[16] = target: T11, CD70 (UniProt P32970 1-193, limits assumed); test: flow cytometry, Raji cells
T11 construct: whole, on cells
T11 sequence (looked up): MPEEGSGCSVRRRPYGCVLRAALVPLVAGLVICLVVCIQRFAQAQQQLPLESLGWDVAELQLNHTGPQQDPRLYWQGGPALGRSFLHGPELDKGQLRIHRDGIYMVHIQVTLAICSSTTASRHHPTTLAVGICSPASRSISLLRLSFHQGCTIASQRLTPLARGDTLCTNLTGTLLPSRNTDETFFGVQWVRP

T9 sequence (P26951 19-378 limits assumed): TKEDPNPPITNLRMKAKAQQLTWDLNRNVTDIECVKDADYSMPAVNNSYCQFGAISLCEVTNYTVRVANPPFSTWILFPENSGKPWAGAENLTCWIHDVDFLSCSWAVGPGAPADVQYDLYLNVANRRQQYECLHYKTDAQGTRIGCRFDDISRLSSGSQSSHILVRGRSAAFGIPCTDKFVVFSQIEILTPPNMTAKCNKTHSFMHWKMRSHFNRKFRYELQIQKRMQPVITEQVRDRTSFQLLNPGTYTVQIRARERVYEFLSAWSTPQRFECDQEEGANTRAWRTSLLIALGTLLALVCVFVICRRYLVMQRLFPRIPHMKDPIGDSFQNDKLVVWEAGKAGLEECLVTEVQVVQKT

B1: CD135 bridging molecule (E200 + CD135 binder, clone 4G8, B041) (Fab, V domains shown)
VH: QVQLQQPGAELVKPGASLKLSCKSSGYTFTSYWMHWVRQRPGHGLEWIGEIDPSDSYKDYNQKFKDKATLTVDRSSNTAYMHLSSLTSDDSAVYYCARAITTTPFDFWGQGTTLTVSS
VL: DIVLTQSPATLSVTPGDSVSLSCRASQSISNNLHWYQQKSHESPRLLIKYASQSISGIPSRFSGSGSGTDFTLSINSVETEDFGVYFCQQSNTWPYTFGGGTKLEIKR
Does B1 bind [1]?
Result: binds

B2: CD79B bridging molecule (E200 + CD79B binder, Polatuzumab, B025) (Fab, V domains shown)
VH: EVQLVESGGGLVQPGGSLRLSCAASGYTFSSYWIEWVRQAPGKGLEWIGEILPGGGDTNYNEIFKGRATFSADTSKNTAYLQMNSLRAEDTAVYYCTRRVPIRLDYWGQGTLVTVSS
VL: DIQLTQSPSSLSASVGDRVTITCKASQSVDYEGDSFLNWYQQKPGKAPKLLIYAASNLESGVPSRFSGSGSGTDFTLTISSLQPEDFATYYCQQSNEDPLTFGQGTKVEIKR
Does B2 bind [2]?
Result: binds

B3: EGFR bridging molecule (E200 + EGFR binder, Matuzumab, B035) (Fab, V domains shown)
VH: QVQLVQSGAEVKKPGASVKVSCKASGYTFTSHWMHWVRQAPGQGLEWIGEFNPSNGRTNYNEKFKSKATMTVDTSTNTAYMELSSLRSEDTAVYYCASRDYDYDGRYFDYWGQGTLVTVSS
VL: DIQMTQSPSSLSASVGDRVTITCSASSSVTYMYWYQQKPGKAPKLLIYDTSNLASGVPSRFSGSGSGTDYTFTISSLQPEDIATYYCQQWSSHIFTFGQGTKVEIKR
Does B3 bind [3]?
Result: binds

B4: ROR1 bridging molecule (E200 + ROR-1 binder, clone D10v3, B044) (Fab, V domains shown)
VH: QVQLKESGPGLVAPSQTLSITCTVSGFSLTSYGVHWVRQPPGKGLEWLGVIWAGGFTNYNSALKSRLSISKDNSKSQVLLKMTSLQTDDTAMYYCARRGSSYSMDYWGQGTSVTVSS
VL: EIVLSQSPAITAASLGQKVTITCSASSNVSYIHWYQQRSGTSPRPWIYEISKLASGVPVRFSGSGSGTSYSLTISSMEAEDAAIYYCQQWNYPLITFGSGTKLEIQR
Does B4 bind [4]?
Result: binds

B5: CD22 bridging molecule (E200 + CD22 binder, m971-L7, B023) (Fab, V domains shown)
VH: QVQLQQSGPGMVKPSQTLSLTCAISGDSVSSNSVAWNWIRQSPSRGLEWLGRTYYRSTWYNDYAVSMKSRITINPDTNKNQFSLQLNSVTPEDTAVYYCAREVTGDLEDAFDIWGQGTMVTVSS
VL: DIQMIQSPSSLSASVGDRVTITCRASQTIWSYLNWYRQRPGEAPNLLIYAASSLQSGVPSRFSGRGSGTDFTLTISSLQAEDFATYYCQQSYSIPQTFGQGTKLEIKR
Does B5 bind [5]?
Result: binds

B6: CD37 bridging molecule (E200 + CD37 binder, Otlertuzumab, B026) (Fab, V domains shown)
VH: EVQLVQSGAEVKKPGESLKISCKGSGYSFTGYNMNWVRQMPGKGLEWMGNIDPYYGGTTYNRKFKGQVTISADKSISTAYLQWSSLKASDTAMYYCARSVGPFDSWGQGTLVTVSS
VL: EIVLTQSPATLSLSPGERATLSCRASENVYSYLAWYQQKPGQAPRLLIYFAKTLAEGIPARFSGSGSGTDFTLTISSLEPEDFAVYYCQHHSDNPWTFGQGTKVEIKR
Does B6 bind [6]?
Result: binds

B7: CD19 BRIDGE variant B36 (Fab)
heavy: EVQLVESGGGLVKPGGSLKLSCAASGYTFTSYVMHWVRQAPGKGLEWIGYINPYNDGTKYNEKFQGRVTISSDKSISTAYMELSSLRSEDTAMYYCARGTYYYGTRVFDYWGQGTLVTVSSASTKGPSVFPLAPSSKSTSGGTAALGCLVKDYFPEPVTVSWNSGALTSGVHTFPAVLQSSGLYSLSSVVTVPSSSLGTQTYICNVNHKPSNTKVDKKVEPKSCHHHHHH
light: DFPGHNYTTRNILPGLNITSTFHKTSGSGKGGGGSEPKSSDKTHTGGGGSDIVMTQSPATLSLSPGERATLSCRSSKSLQNVNGNTYLYWFQQKPGQSPQLLIYRMSNLNSGVPDRFSGSGSGTEFTLTISSLEPEDFAVYYCMQHLEYPITFGAGTKLEIKRTVAAPSVFIFPPSDEQLKSGTASVVCLLNNFYPREAKVQWKVDNALQSGNSQESVTEQDSKDSTYSLSSTLTLSKADYEKHKVYACEVTHQGLSSPVTKSFNRGEC
For B7, which “MFI HisTag FITC in EGFR+ Population” value [7] is on record?
The value was 2.41.

What about the “HisTag MFI Ratio of EGFR+/EGFR-” value [8] of the same binder?
Its value is 4.2.

What about the “HisTag MFI Ratio (background 0.44)” value [9] of the same binder?
Its value is 5.5.

What about the “MFIR BIL03 AF647” value [10] of the same binder?
Its value is 19.9.

What about the “MFI Bil03 AF647” value [11] of the same binder?
The value was 9.15.

And the “MFIR HisTag FITC” value [12]?
The value was 2.97.

And the “MFI HisTag FITC” value [13]?
Its value is 2.29.

B8: CD123 bridging molecule (E200 + CD123 binder, clone 32716, B042) (Fab, V domains shown)
VH: QIQLVQSGPELKKPGETVKISCKASGYIFTNYGMNWVKQAPGKSFKWMGWINTYTGESTYSADFKGRFAFSLETSASTAYLHINDLKNEDTATYFCARSGGYDPMDYWGQGTSVTVSS
VL: DIVLTQSPASLAVSLGQRATISCRASESVDNYGNTFMHWYQQKPGQPPKLLIYRASNLESGIPARFSGSGSRTDFTLTINPVEADDVATYYCQQSNEDPPTFGAGTKLELKR
Does B8 bind [14]?
Result: binds

B9: BCMA bridging molecule (E200 + BCMA binder, clone CA8 J9M0, B039) (Fab, V domains shown)
VH: QVQLVQSGAEVKKPGSSVKVSCKGSGYTFTNYWMHWVRQAPGQGLEWIGATYRGHSDTYYNQKFKGRATLTADTSTSTAYMELSSLRSEDTAVYYCTRGAIYDGYDVLDNWGQGTLVTVSS
VL: DIQMTQSPSSLSASVGDRVTITCSASQDISNYLNWYQQKPGKAPKLLIYYTSNLHSGVPSRFSGSGSGTDFTLTISSLQPEDFATYYCQQYRKLPWTFGQGTKLEIKR
Does B9 bind [15]?
Result: binds

B10: CD70 bridging molecule (E200 + CD70 binder, Cusatuzumab, B028) (Fab, V domains shown)
VH: EVQLVESGGGLVQPGGSLRLSCAASGFTFSVYYMNWVRQAPGKGLEWVSDINNEGGTTYYADSVKGRFTISRDNSKNSLYLQMNSLRAEDTAVYYCARDAGYSNHVPIFDSWGQGTLVTVSS
VL: SQAVVTQEPSLTVSPGGTVTLTCGLKSGSVTSDNFPTWYQQTPGQAPRLLIYNTNTRHSGVPDRFSGSILGNKAALTITGAQADDEAEYFCALFISNPSVEFGGGTQLTVLK
Does B10 bind [16]?
Result: binds
